Test results reported in patent US20260098080A1, “A MODIFIED PROTEIN SCAFFOLD AND USE THEREOF” (EVOLVERITAS BIOTECHNOLÓGIAI KORLÁTOLT FELELOSSÉGU TÁRSASÁG, priority 2022, published 2026).
Where no end group is shown, it is not given here.

Legend:
[1] = target: rat MASP-2 (in rat serum) (rat, UniProt Q9JJS8 20-685); experiment: cell-based or functional assay
[2] = target: T1, human MASP-2 (in normal human serum) (human, UniProt O00187 16-686); experiment: cell-based or functional assay
[3] = target: T2, human MASP-2cf CCP1-CCP2-SP (human, UniProt O00187 298-686, limits assumed); experiment: SPR, target immobilised
T2 construct: domain: CCP1-CCP2-SP; also called human MASP-2 catalytic fragment
T2 sequence (O00187 298-686 limits assumed): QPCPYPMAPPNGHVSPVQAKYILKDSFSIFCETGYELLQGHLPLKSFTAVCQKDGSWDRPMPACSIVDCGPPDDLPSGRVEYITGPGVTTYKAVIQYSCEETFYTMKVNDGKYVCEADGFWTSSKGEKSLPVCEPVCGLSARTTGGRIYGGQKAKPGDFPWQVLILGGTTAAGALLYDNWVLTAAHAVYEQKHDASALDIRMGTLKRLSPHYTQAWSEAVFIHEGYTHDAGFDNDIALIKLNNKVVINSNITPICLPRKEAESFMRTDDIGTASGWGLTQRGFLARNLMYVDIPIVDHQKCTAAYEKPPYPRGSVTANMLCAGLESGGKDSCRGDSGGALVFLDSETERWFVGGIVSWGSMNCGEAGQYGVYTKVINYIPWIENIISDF

[4] = target: T3, rat MASP-2cf CCP1-CCP2-SP (rat, UniProt Q9JJS8 298-685); experiment: SPR, target immobilised
T3 construct: range 298-685; Mw 42309 Da; also called rat MASP-2 catalytic fragment
T3 sequence (Q9JJS8 other isoform, or with tags, fused parts or gaps limits assumed, form in doubt): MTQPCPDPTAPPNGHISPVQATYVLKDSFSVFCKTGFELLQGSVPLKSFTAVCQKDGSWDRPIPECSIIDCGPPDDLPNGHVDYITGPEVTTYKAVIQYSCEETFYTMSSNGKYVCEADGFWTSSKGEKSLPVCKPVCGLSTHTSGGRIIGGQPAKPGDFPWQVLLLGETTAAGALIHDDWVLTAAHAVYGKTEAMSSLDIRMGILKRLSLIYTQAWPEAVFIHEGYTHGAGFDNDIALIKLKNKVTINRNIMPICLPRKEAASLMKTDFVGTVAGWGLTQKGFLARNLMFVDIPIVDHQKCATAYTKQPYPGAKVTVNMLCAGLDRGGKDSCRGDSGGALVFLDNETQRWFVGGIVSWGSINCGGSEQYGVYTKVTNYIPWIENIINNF

[5] = target: T1, human MASP-2 (in normal human serum); experiment: cell-based or functional assay; remark: listed apart in the source

rat MASP-2 (in rat serum), sequence (Q9JJS8 20-685 limits assumed): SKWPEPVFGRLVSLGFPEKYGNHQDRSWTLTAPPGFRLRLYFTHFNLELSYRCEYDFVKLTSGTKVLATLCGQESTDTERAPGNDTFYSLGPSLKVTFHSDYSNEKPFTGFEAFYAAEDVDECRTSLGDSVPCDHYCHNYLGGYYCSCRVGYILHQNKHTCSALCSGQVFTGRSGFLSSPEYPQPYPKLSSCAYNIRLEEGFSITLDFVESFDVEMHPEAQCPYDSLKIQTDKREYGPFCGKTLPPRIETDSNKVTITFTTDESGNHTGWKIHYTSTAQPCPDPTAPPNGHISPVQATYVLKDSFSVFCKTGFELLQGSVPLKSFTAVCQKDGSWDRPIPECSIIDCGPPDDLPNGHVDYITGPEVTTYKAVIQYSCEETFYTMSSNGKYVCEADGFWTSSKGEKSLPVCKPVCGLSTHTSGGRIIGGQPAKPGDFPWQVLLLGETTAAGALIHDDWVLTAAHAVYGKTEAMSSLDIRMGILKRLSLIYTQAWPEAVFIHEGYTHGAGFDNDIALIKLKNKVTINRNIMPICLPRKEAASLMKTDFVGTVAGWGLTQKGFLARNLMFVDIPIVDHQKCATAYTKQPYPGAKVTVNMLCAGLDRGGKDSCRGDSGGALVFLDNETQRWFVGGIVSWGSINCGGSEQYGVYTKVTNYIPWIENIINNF
T1 sequence (O00187 16-686 limits assumed): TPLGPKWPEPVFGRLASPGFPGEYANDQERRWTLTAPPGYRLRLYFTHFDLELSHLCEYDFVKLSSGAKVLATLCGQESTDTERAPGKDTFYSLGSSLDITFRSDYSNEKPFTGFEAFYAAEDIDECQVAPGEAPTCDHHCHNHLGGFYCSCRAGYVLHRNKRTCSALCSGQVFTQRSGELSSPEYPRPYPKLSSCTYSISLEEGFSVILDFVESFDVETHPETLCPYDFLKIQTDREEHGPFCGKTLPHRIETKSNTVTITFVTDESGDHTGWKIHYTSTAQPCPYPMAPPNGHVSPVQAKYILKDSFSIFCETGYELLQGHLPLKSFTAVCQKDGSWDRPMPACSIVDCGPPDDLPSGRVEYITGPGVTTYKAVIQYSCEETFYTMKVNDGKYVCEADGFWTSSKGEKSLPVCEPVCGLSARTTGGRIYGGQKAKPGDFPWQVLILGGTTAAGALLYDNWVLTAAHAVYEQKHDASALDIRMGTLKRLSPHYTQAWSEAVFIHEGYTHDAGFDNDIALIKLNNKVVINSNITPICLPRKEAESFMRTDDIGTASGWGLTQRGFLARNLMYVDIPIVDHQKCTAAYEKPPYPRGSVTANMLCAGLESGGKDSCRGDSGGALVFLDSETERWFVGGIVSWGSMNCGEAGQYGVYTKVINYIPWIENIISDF

Binder	IC50, lectin pathway C4 deposition, rat serum [1] [nM]	Relative potency, lectin pathway, rat serum [1] [fold vs EVO2]	IC50, lectin pathway C4 deposition, human serum [2] [nM]	Relative potency, lectin pathway, human serum [2] [fold vs EVO2]	Kd [3] [nM]	Relative affinity [3] [fold vs EVO2]	koff [3] [s⁻¹]	kon [3] [M⁻¹ s⁻¹]	Kd [4] [nM]	Relative affinity [4] [fold vs EVO2]	koff [4] [s⁻¹]	kon [4] [M⁻¹ s⁻¹]	Relative potency (relative human lectin pathway inhibitory efficiency compared to EVO2) [5]
EVO2a (designed binder, not fully specified; cysteine pairing not given here, Modified TFPI-D2 Kunitz domain; made as m1) KPDFCFLENDPGPCRAVKRRYFYNNQTKQCERFKYGGCLGNMNNFETLEECKNICEDG	213	0.5	215	0.6	2.95	0.6	0.0021	711000	4.73	0.8	0.00151	319000	–
EVO21d (designed binder, not fully specified; cysteine pairing not given here) KPDFCFLEEDPGPCRALKRRYFYNNQTKQCERFSYGGCFGNMNNFVTLEECKNICEDG	25.9	4.1	8.3	16.6	–	–	–	–	–	–	–	–	–
EVO23a (designed binder) KPDFCFLEEDPGPCRALKRRYFYNNQTKQCERFYYGGCFGNMNNFVTLEECKNICEDG	14.1	7.5	3.2	43	–	–	–	–	–	–	–	–	43.1 fold relative to EVO2
EVO215 (designed binder, not fully specified; ends and bridges not checked, Modified TFPI-D2 Kunitz domain; made as m1) KPDFCFLENDPGWCRAAKRRYFYNNQTKQCERFGYGGCLGNMNNFVTLEECKNICEDG	–	–	22.7	6.1	0.304	5.9	0.000559	1.84e+06	–	–	–	–	–
EVO213 (designed binder, Modified TFPI-D2 Kunitz domain; made as m1) KPDFCFLENDPGPCRAAKRRYFYNNQTKQCERFGYGGCLGNMNNFVTLEECKNICEDG	88.7	1.2	28.3	4.9	0.542	3.3	0.000524	967000	3.81	1	0.00147	386000	–
EVO2b (designed binder, not fully specified; cysteine pairing not given here, Modified TFPI-D2 Kunitz domain; made as m1) KPDFCFLEEDPGPCRAVKRRYFYNNQTKQCERFGYGGCLGNMNNFETLEECKNICEDG	34.3	3.1	62.7	2.2	1.97	0.9	0.00156	790000	1.95	1.9	0.000942	484000	–
EVO22a (designed binder, Modified TFPI-D2 Kunitz domain; made as m1) KPDFCFLENDPGPCRAAKRRYFYNNQTKQCERFYYGGCLGNMNNFVTLEECKNICEDG	10.6	10	3.7	37.1	–	40.1	9.09e-05	2.04e+06	0.192	18.9	0.000163	847000	–
EVO22b (designed binder, not fully specified; cysteine pairing not given here, Modified TFPI-D2 Kunitz domain; made as m1) KPDFCFLENDPGPCRALARRYFYNNQTKQCERFYYGGCLGNMNNFVTLEECKNICEDG	9.7	11	13.7	10	0.21	8.5	0.00026	1.24e+06	0.163	22.3	0.000159	975000	–
EVO2c (designed binder, not fully specified; cysteine pairing not given here, Modified TFPI-D2 Kunitz domain; made as m1) KPDFCFLEEDPGPCRAVKRRYFYNNQTKQCERFYYGGCLGNMNNFETLEECKNICEDG	34.3	3.1	22.3	6.2	1.04	1.7	0.00161	1.55e+06	1.31	2.8	0.000978	747000	–
EVO212 (designed binder, not fully specified; ends and bridges not checked, Modified TFPI-D2 Kunitz domain; made as m1) KPDFCFLENDPGLCRALKRRYFYNNQTKQCERFGYGGCLGNMNNFVTLEECKNICEDG	46.3	2.3	6.2	22.1	0.055	32.7	8.26e-05	1.51e+06	1.26	2.9	0.000618	492000	–
EVO216 (designed binder, not fully specified; cysteine pairing not given here, Modified TFPI-D2 Kunitz domain; made as m1) KPDFCFLENDPGWCRAAKLRYFYNNQTKQCERFGYGGCLGNMNNFVTLEECKNICEDG	–	–	30.9	4.5	0.76	2.4	0.000732	963000	–	–	–	–	–
EVO2d (designed binder, not fully specified; cysteine pairing not given here, Modified TFPI-D2 Kunitz domain; made as m1) KPDFCFLEEDPGPCRALKRRYFYNNQTKQCERFKYGGCLGNMNNFETLEECKNICEDG	70.9	1.5	60.3	2.3	1.19	1.5	0.00108	909000	1.08	3.4	0.000438	405000	–
EVO211 (designed binder, not fully specified; ends and bridges not checked, Modified TFPI-D2 Kunitz domain; made as m1) KPDFCFLENDPGWCRALKRRYFYNNQTKQCERFGYGGCLGNMNNFVTLEECKNICEDG	53.2	2	3.1	44	0.043	41.6	6.62e-05	1.54e+06	2.87	1.3	0.0027	942000	–
